# Test results: patent publication US20030069395A1 (DYAX, published 2003)
# Bridges are numbered along the chain shown (N, C = ends). Where no end group is shown, it is not given here. [ ]: non-standard residue; d: D form. fluorescein = fluorescein label; Ahx = NCCCCCC(=O)O
# B1: phage isolate displaying WKVCDHFFCLSP (SEQ ID NO: 242) (peptide)
# chain: WKVCDHFFCLSP
# modifications: not fully specified (bridges); cysteine pairing not given here
# notes: Whole phage in the ELISA; not shown: protein III of M13 phage; the display peptide stands at its amino terminus
# B2: phage isolate displaying FKICDQWFCLMP (SEQ ID NO: 240) (peptide)
# chain: FKICDQWFCLMP
# modifications: not fully specified (bridges); cysteine pairing not given here
# notes: as for B1
# B3: phage isolate displaying DWDCVTDWANRHQHCWAL (SEQ ID NO: 249) (peptide)
# chain: DWDCVTDWANRHQHCWAL
# modifications: not fully specified (bridges); cysteine pairing not given here
# notes: as for B1
# B4: phage isolate displaying ADFCEGKDMIDWVYCRLY (SEQ ID NO: 245) (peptide)
# chain: ADFCEGKDMIDWVYCRLY
# modifications: not fully specified (bridges); cysteine pairing not given here
# notes: as for B1
# B5: phage isolate displaying DWQCVKDWANRRRGCMAD (SEQ ID NO: 250) (peptide)
# chain: DWQCVKDWANRRRGCMAD
# modifications: not fully specified (bridges); cysteine pairing not given here
# notes: as for B1
# B6: phage isolate displaying RNMCKFSWIRSPAFCARADP (SEQ ID NO: 251) (peptide)
# chain: RNMCKFSWIRSPAFCARADP
# modifications: not fully specified (bridges); cysteine pairing not given here
# notes: as for B1
# B7: phage isolate displaying FRNCEPWMLRFGCNPR (SEQ ID NO: 244) (peptide)
# chain: FRNCEPWMLRFGCNPR
# modifications: not fully specified (bridges); cysteine pairing not given here
# notes: as for B1
# B8: phage isolate displaying HVGCNNALCMQY (SEQ ID NO: 241) (peptide)
# chain: HVGCNNALCMQY
# modifications: not fully specified (bridges); cysteine pairing not given here
# notes: as for B1
# B9: phage isolate displaying DWDCVTRWANRDQQCWAL (SEQ ID NO: 248) (peptide)
# chain: DWDCVTRWANRDQQCWAL
# modifications: not fully specified (bridges); cysteine pairing not given here
# notes: as for B1
# B10: phage isolate displaying VAWCTIFLCLDV (SEQ ID NO: 239) (peptide)
# chain: VAWCTIFLCLDV
# modifications: not fully specified (bridges); cysteine pairing not given here
# notes: Whole phage in the ELISA; the constant phage residues that flank the display peptide are not spelled out for the phage construct; not shown: protein III of M13 phage; the display peptide stands at its amino terminus
# B11: phage isolate displaying NHGCWHFSCIWD (SEQ ID NO: 243) (peptide)
# chain: NHGCWHFSCIWD
# modifications: not fully specified (bridges); cysteine pairing not given here
# notes: as for B1
# B12: phage isolate displaying FWFCDRIAWYPQHLCEFLD (SEQ ID NO: 246) (peptide)
# chain: FWFCDRIAWYPQHLCEFLD
# modifications: not fully specified (bridges); cysteine pairing not given here
# notes: as for B1
# B13: DX-232, Ac-AEGTGSVAWCTIFLCLDVAPEGGGK-NH2 (peptide)
# peptide: Ac-AEGTGSVAWCTIFLCLDVAPEGGGK-NH2
# modifications: not fully specified (bridges); printed as Ac-AEGTGSVAWCTIFLCLDVAPEGGGK-NH2; also: C-terminal Lys: fluorescein or coupled to NHS-Sepharose
# notes: Putative disulfide between the two Cys
# B14: DX-1171, Ac-GSRSFCMDWPNHRDCDYSAPGGGK-NH2 (peptide)
# peptide: Ac-GSRSFCMDWPNHRDCDYSAPGGGK(fluorescein)-NH2
# modifications: not fully specified (bridges); printed as Ac-GSRSFCMDWPNHRDCDYSAPGGGK-NH2; cysteine pairing not given here
# B15: DX-1163, Ac-GDDSMCITWPFKRPWPCANDPGGGK-NH2 (peptide)
# peptide: Ac-GDDSMCITWPFKRPWPCANDPGGGK(fluorescein)-NH2
# modifications: not fully specified (bridges); printed as Ac-GDDSMCITWPFKRPWPCANDPGGGK-NH2; cysteine pairing not given here
# B16: DX-1002, Ac-GDLRDCQTTWPFTMMQCPNNDPGGGK-NH2 (peptide)
# peptide: Ac-GDLRDCQTTWPFTMMQCPNNDPGGGK(fluorescein)-NH2
# modifications: not fully specified (bridges); printed as Ac-GDLRDCQTTWPFTMMQCPNNDPGGGK-NH2; cysteine pairing not given here
# B17: DX-1179, Ac-AGYQFCTWDPIFCGWHGTGGGK-NH2 (peptide)
# peptide: Ac-AGYQFCTWDPIFCGWHGTGGGK(fluorescein)-NH2
# modifications: not fully specified (bridges); printed as Ac-AGYQFCTWDPIFCGWHGTGGGK-NH2; cysteine pairing not given here
# B18: DX-1175, Ac-AGWTTCHIYDWFCSSSGTGGGK-NH2 (peptide)
# peptide: Ac-AGWTTCHIYDWFCSSSGTGGGK(fluorescein)-NH2
# modifications: not fully specified (bridges); printed as Ac-AGWTTCHIYDWFCSSSGTGGGK-NH2; cysteine pairing not given here
# B19: DX-1177, Ac-AGLEYCFYQWWGCPHAGTGGGK-NH2 (peptide)
# peptide: Ac-AGLEYCFYQWWGCPHAGTGGGK(fluorescein)-NH2
# modifications: not fully specified (bridges); printed as Ac-AGLEYCFYQWWGCPHAGTGGGK-NH2; cysteine pairing not given here
# Molecular target: T1, human serum albumin (HSA) (human, UniProt P02768 25-609)
# T1 construct: also called caprylate-biotinylated-HSA
# Assay: phage ELISA on immobilised caprylate-HSA, HRP anti-M13 antibody
# Procedure: Phage were selected as described below from a pool of three phage libraries (TN6/6, TN10/9, TN12/1). Phage were tested for ability to bind to HSA an in ELISA format using caprylate-bound HSA, which had been passively immobilized on the surface of wells of a microtiter assay plate. Binding of phage to immobilized HSA was detected by adding HRP-conjugated anti-M13 antibody. Following addition of TMB substrate, the absorbance at 620 nm was read with an automated plate reader. Phage bound to HSA is shown by diagonal striped bars; control wells (no HSA) is shown by open bars.
# For analysis of caprylate-HSA as a target, Immulon 2HB plates were prepared by the addition of 340 μl/well of caprylate-HSA at 5.6 μg/ml. The plates were incubated overnight at 4° C. The HSA-coated plates were then washed robotically with PBSCT six times (BioTek 404, BioTek Instruments). To account for plate binders, empty plates were also washed. An equal volume of each phage clone isolate was added to a plate well containing 70 μl PBSCT in both the target plate and the control plate. Plates were incubated for one hour at room temperature. The plates were washed seven times with PBSCT using the BioTek 404 apparatus. A 1:10,000 dilution of Pharmacia HRP-αM13 antibody conjugate in PBSCT was added to each well, at 100 μl/well. Plates were incubated for one hour. After incubation, plates were washed six times with PBSCT using the BioTek 404 apparatus. Following the wash, 100 μl of a 1:1 solution of the two-component TMB substrate solution was added to each well, and the plates incubated for 30 minutes. The plates were then read at 620 nm with an automatic BioTek plate reader.
row,Binder,binding result
1,B1,binds
2,B2,binds
3,B3,binds
4,B4,binds
5,B5,binds
6,B6,binds
7,B7,binds
8,B8,binds
9,B9,binds
10,B10,binds
11,B11,binds
12,B12,binds

# Molecular target: T1, human serum albumin (HSA)
# Assay: fluorescence anisotropy; pH 6.2, 0.14 M NaCl, no caprylate
# Procedure: (§1) Affinity determinations were made by first labeling polypeptides on the C-terminal end with NHS-fluorescein. Fluorescence anisotropy measurements were performed in 384-well microplates in a volume of 10 μl in binding buffer using a Tecan Polarion fluorescence polarization plate reader. The concentration of fluorescein labeled peptide was held constant (20 nM), and the concentration of HSA was varied. For pH 6.2, 7.1, and 7.4 binding conditions, a 3 mM phosphate, 0.01% Tween-20 buffer was used. For pH 9.1 binding conditions, a 3 mM sodium bicarbonate buffer, 0.01% Tween-20 nonionic detergent buffer was used. Once NaCl was added to any of these buffers, their pH was adjusted again to achieve the original pH. The binding mixtures were equilibrated for 10 minutes in the microplate at 30° C. prior to performing the measurement. The observed change in anisotropy was fit to the equation below via nonlinear regression to obtain the apparent KD. This equation assumes that the peptide and HSA form a reversible complex with 1:1 stoichiometry.
row,Binder,Kd
1,"Ac-AEGTGSFKICDQWFCLMPAPE[Ahx]K(fluorescein)-NH2 (disulfide 10-15) [DX-295, Ac-AEGTGSFKICDQWFCLMPAPE-X-K-NH2]",> 100 µM
2,B13,0.5 µM
3,"Ac-AEGTGDDWDCVTDWANRHQHCWALDPE[Ahx]K(fluorescein)-NH2 (disulfide 10-21) [DX-317, Ac-AEGTGDDWDCVTDWANRHQHCWALDPE-X-K-NH2]",> 200 µM

# Molecular target: T1, human serum albumin (HSA)
# Assay: fluorescence anisotropy, fluorescein-labelled peptide, PBS
# Procedure: as §1
# Selected HSA binding polypeptides from these additional library selections were synthesized, fluorescein-labeled as in Example 1, and tested to determine an apparent KD for HSA in PBS. The polypeptides were synthesized to include an acetylated N-terminal dipeptide and a C-terminal dipeptide corresponding to the constant flanking amino acids immediately adjacent the display peptide as expressed on phage in the respective phage display libraries. The polypeptides were also synthesized with a C-terminal -Gly-Gly-Gly-Lys (SEQ ID NO: 24). The terminal Lys residue was amidated.
row,Binder,Kd
1,B14,165 µM
2,B15,42 µM
3,"Ac-GSLWDCWLYDCEGNAPGGGK(fluorescein)-NH2 (disulfide 6-11 (inferred)) [DX-1093, Ac-GSLWDCWLYDCEGNAPGGGK-NH2]",> 10 µM
4,B16,4 µM
5,"Ac-GDFSLCWIVDEDGTKWCLPDPGGGK(fluorescein)-NH2 (disulfide 6-17 (inferred)) [DX-997, Ac-GDFSLCWIVDEDGTKWCLPDPGGGK-NH2]",> 10 µM
6,"Ac-AGKWYCAWDPLVCEIFGTGGGK(fluorescein)-NH2 (disulfide 6-13 (inferred)) [DX-1173, Ac-AGKWYCAWDPLVCEIFGTGGGK-NH2]",> 10 µM
7,"Ac-GDSPYCKIALFQHFEVCAADDPGGGK(fluorescein)-NH2 (disulfide 6-17 (inferred)) [DX-1167, Ac-GDSPYCKIALFQHFEVCAADDPGGGK-NH2]",> 10 µM
8,B17,185 µM
9,"Ac-GDSFCVTYIGTWETVCKRSDPGGGK(fluorescein)-NH2 (disulfide 5-16 (inferred)) [DX-1089, Ac-GDSFCVTYIGTWETVCKRSDPGGGK-NH2]",> 10 µM
10,"Ac-GDLRSCFTYYPFTTFSCSPADPGGGK(fluorescein)-NH2 (disulfide 6-17 (inferred)) [DX-1091, Ac-GDLRSCFTYYPFTTFSCSPADPGGGK-NH2]",> 10 µM
11,"Ac-GDRNMCKFSWIRSPAFCARADPGGGK(fluorescein)-NH2 (disulfide 6-17 (inferred)) [DX-321 of Table 9, Ac-GDRNMCKFSWIRSPAFCARADPGGGK-NH2]",> 10 µM
12,"Ac-GDNDGCTDTNWSWMFDCPPLDPGGGK(fluorescein)-NH2 (disulfide 6-17 (inferred)) [DX-1165, Ac-GDNDGCTDTNWSWMFDCPPLDPGGGK-NH2]",> 10 µM
13,B18,30 µM
14,B19,153 µM
